Experiments:
[1] = molecular target: human plasma plasminogen (human); test: SPR
[2] = molecular target: PAM_(NS88.2), recombinant full-length PAM of GAS strain NS88.2 (emm98.1) (Streptococcus pyogenes (GAS) strain NS88.2); test: AUC
[3] = molecular target: PAM_(NS223), recombinant full-length PAM of GAS strain NS223 (emm91) (Streptococcus pyogenes (GAS) strain NS223); test: AUC
[4] = molecular target: PAM_(NS455), recombinant full-length PAM of GAS strain NS455 (emm52) (Streptococcus pyogenes (GAS) strain NS455); test: AUC
[5] = molecular target: PAM_(SS1448), recombinant full-length PAM of GAS strain SS1448 (emm86.2) (Streptococcus pyogenes (GAS) strain SS1448); test: AUC
[6] = molecular target: PAM_(SS1572), recombinant full-length PAM of GAS strain SS1572 (emm223) (Streptococcus pyogenes (GAS) strain SS1572); test: AUC
[7] = molecular target: PAM_(SS1574), recombinant full-length PAM of GAS strain SS1574 (emm224) (Streptococcus pyogenes (GAS) strain SS1574); test: AUC
[8] = molecular target: PAM on cells of GAS strain SS1574 (Streptococcus pyogenes (endogenous in strain SS1574)) (UniProt P49054); test: flow cytometry on cells

Substance	Kd [1] [nM]	koff [1] [s⁻¹]	kon [1] [M⁻¹ s⁻¹]	further results
PAM_(AP53), recombinant full-length PAM of GAS strain AP53 (emm53) (natural protein)	1.6	0.00056	340000	–
PAM_(AP53_short) (residues 42-175 of PAM_(AP53)) (domain or fragment)	–	0.00077	–	–
PAM_(NS88.2), recombinant full-length PAM of GAS strain NS88.2 (emm98.1) (natural protein)	1.2	0.00023	–	stoichiometry N [2]: 2
PAM_(NS223), recombinant full-length PAM of GAS strain NS223 (emm91) (natural protein)	1.4	0.00033	240000	stoichiometry N [3]: 2
PAM_(NS455), recombinant full-length PAM of GAS strain NS455 (emm52) (natural protein)	–	0.00017	540000	stoichiometry N [4]: 2
PAM_(SS1448), recombinant full-length PAM of GAS strain SS1448 (emm86.2) (natural protein)	28	0.001	36000	stoichiometry N [5]: 2
PAM_(SS1572), recombinant full-length PAM of GAS strain SS1572 (emm223) (natural protein)	4.9	0.00059	120000	stoichiometry N [6]: 2
PAM_(SS1574), recombinant full-length PAM of GAS strain SS1574 (emm224) (natural protein)	1.1	0.00011	–	stoichiometry N [7]: 2
human plasma plasminogen (natural protein)	–	–	–	amount of hPg bound, fold of strain AP53 [8]: < 2 fold
